Test results taken from publication PMC12392091.

Target: T1, DdaA (Ab) (Acinetobacter baumannii ATCC 17978, UniProt V5VBS3 1-335)
T1 sequence: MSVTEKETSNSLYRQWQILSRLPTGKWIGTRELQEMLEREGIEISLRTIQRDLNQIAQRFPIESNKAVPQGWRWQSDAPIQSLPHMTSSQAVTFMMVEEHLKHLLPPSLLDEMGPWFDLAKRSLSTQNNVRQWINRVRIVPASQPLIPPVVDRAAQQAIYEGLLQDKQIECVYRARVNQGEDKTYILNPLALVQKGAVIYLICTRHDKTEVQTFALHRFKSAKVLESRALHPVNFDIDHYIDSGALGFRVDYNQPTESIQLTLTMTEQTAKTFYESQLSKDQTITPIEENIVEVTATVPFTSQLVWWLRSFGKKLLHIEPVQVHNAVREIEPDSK
Assay: EMSA

B1: recA promoter WT (FAM-AR-DDRM) (dsDNA)
DNA 1: TTTCCGGTCTGGGCGACACAATATGACGTGTAATTTTAACC
DNA 2: GGTTAAAATTACACGTCATATTGTGTCGCCCAGACCGGAAA
Does B1 bind?
Result: binds
